The values below come from PMC4506739.

The test addresses importin α ΔIBB (NLS-recognition domain of importin α). In words: ITC. On the technique in general: Isothermal titration calorimetry measures the heat released or taken up as one component is titrated into another.

Usually stoichiometry N stands for the number of molecules, sites or subunits per partner or assembly. Substance “GST-TPX2 NLS wildtype (mouse TPX2 residues 302-322) (from UniProt A2APB8 302-322) (peptide)” registered a stoichiometry N of 1.
“GM130 N74 S25D-GST (Cdk1 phospho-mimicking mutant) (from UniProt Q62839 1-74) (domain or fragment)”: the fold higher affinity than TPX2 NLS worked out at 9 fold and the stoichiometry N came to 1.
